Results taken from patent US20100021538A1, “PHARMACEUTICAL COMPOSITIONS CONTAINING HEPARIN DERIVATIVES” (priority 2008, published 2010).

Assay: Particle size of heparin-DOCA solutions with solubilizers by electrophoretic light scattering
Format: physicochemical
Settings: aqueous 1 mg/ml heparin-DOCA solution, solubilizer added at 0.1 mg/ml, ELS-8,000, N.D. = particles were not detected
Experimental: To measure the formation of self-assembled nanoparticles in aqueous solutions of heparin-DOCA and to observe the prevention of particle formation due to a solubilizer, the solubilizers shown in Table 1 were added at a concentration of 0.1 mg/ml to 1 mg/ml of heparin-DOCA solution, and electrophoretic light scattering spectrophotometry (ELS-8,000) was used to measure the size of particles in the solution.

Substance: Heparin-Deoxycholic Acid [Heparin-DOCA]
- Particle Size (nm): 369.5 nm
- Particle Size (nm) (listed as heparin-deoxycholic acid): 370 nm
